{"source": "the DeepSol protein solubility set"}
{"assay": "soluble on expression in E. coli; label from the status in PepcDB or PDB records"}
{"sequence": "MNDIPVQHNKNRCPSHPGDLLAEIIPATGKTKLEIAQMLGISRQHLYAILRAKKPISPSVSARLGKLFGDGAAVWLRMQAAYDAWHAEHETDVSQIPTLHVV", "soluble on expression in E. coli": "not soluble"}
{"sequence": "MNDPADTLRATLADLVDGLPPRQAARAVERLIANYRGDTPTDAPILRDRADVVAYAAYRMPATFAAVRSALTAFAEAVPDWVPGSHLDVGGGTGAATWAVSDTWGGTRPVTVLDWAEPALVLGQEIAASLPALREARWRRSRIGAALDIESVELVTVSYVLNELTGSDRAALVDAAAGAARAVVIVEAGTPAGYARVVEARDRLIAAGFRVAAPCPHSAACPIEAGTDWCHFAARVSRSSLHRQVKSGSLAYEDEKFSYVAATRLPVEPAASRVVRRPQIRKGQVLLDLCASDERLRRSTVTKRHGDLYKAARDAAWGDPWPPGEDLEHHHHHH", "soluble on expression in E. coli": "soluble"}
{"sequence": "MNDVQQAINSDDIPLTDELVVSYLQDNPEFFNRNNSLMTGLRLNDEQRGTVSLVERQQQQLRQKVYGLEDEITQLMSVANHNEQLFVLYSDLYLRLLDCQSAEELLDCLHQATTELLSLSSFKLWLVSGNNTEVAHHSLSTNDCAGVMQNRLTNDEYYFGRLQESEQTLIFSKPCLGSVVLIKLTHDEQAVGFLAIGSEDAHHFDPRMDTLLLNQFKRLVAKLLHQQLSMLEHHHHHH", "soluble on expression in E. coli": "soluble"}
{"sequence": "MNEDVIVDRQYSHGAALTIRAFWAADEESRAAIAKASGLRWVPSSADQPGEQHWPYTEIFQRQMQMELGPDTETRLRIHQPSQLWVRAPSLGEGWLAVPLYPHPLRGQRI", "soluble on expression in E. coli": "not soluble"}
{"sequence": "MNEKIEQAIREMGFKNFTEVQSKTIPLMLQGKNVVVRAKTGSGKTAAYAIPILELGMKSLVVTPTRELTRQVASHIRDIGRYMDTKVAEVYGGMPYKAQINRVRNADIVVATPGRLLDLWSKGVIDLSSFEIVIIDEADLMFEMGFIDDIKIILAQTSNRKITGLFSATIPEEIRKVVKDFITNYEEIEACIGLANVEHKFVHVKDDWRSKVQALRENKDKGVIVFVRTRNRVAKLVRLFDNAIELRGDLPQSVRNRNIDAFREGEYDMLITTDVASRGLDIPLVEKVINFDAPQDLRTYIHRIGRTGRMGRKGEAITFILNEYWLEKEVKKVSQKA", "soluble on expression in E. coli": "soluble"}
{"sequence": "MNEKQKRFADEYIMNGCNGKKAAISAGYSKKTAESLASRLLRNVNVSEYIKERLEQIQEERLMSITEALALSASIARGEPQEAYSKKYDHLNDEVEKEVTYTITPTFEERQRSIDHILKVYGAYIDKKEITQKNIEINIGEYDDESLEHHHHHH", "soluble on expression in E. coli": "soluble"}
{"sequence": "MNEKYEAVIGLEIHVQMDTKTKMFCGCKVEFGAEPNTNVCPVCLGMPGALPIVNKRAVEYAIRASLALNCEVHEESVFARKHYFYPDLPKGYQISQYEKPLATNGWVELNLPNGEKKKVRIRRLHIEEDAGKNIHEGDKTLVDLNRAGTPLMEIVTEPDIRTPEEARLFLEKLRNIMRYAGVSKADMEKGQLRCDINVSIRPKGSKEFGTRVEIKNVNSFRFVQKALEYEIERQINVVEEGGEVVQETRTFDPQTGKTYPMRTKEEAEDYRYFPDPDLVPLKVKKEWIEEIKKNMPELPDQRFERLIKEYGLSEYEAGILVNHKEVGDFFEEAVRHFKEPKGIVNWLINDLLGLLRDKGISIEESPVKPEHLAELVKLIKEKVISTKIGKEVIKEMVETGKTPSQIVEEKGLKQITDENQIKELVKKIFEKHPKEVERLKQGEEKLIGFFVGQVMRETRGKANPQVVNKVIRELVKEV", "soluble on expression in E. coli": "soluble"}
{"sequence": "MNENKLRRLIKKNEYEKLDFKLKIELFTESVKKELAKDICAIANSRGGRGYIIIGVEDKTKKIVGVDADYITEERVQQIVASRIEPPVPISLEECFLDGKRLLVIVIFNSYQKPYQIRENGAFYIRRGSTTDIMRKQELLSEFQKGISFNLETCPIVNSNIDFLNEELVRRYFYLKGIKISKENREFLLSSSNIIHKNNISGKSMCTLGGLLVFSDVNSIYIPHNMIKIRNLLGGEQTFIIRGNILDMMKSMEKKLREIVPNEYPVALIIDTIRNILIYRDYSQYNKIVEVVLGKKELTVYCPGEIVKRYRDGRIGYIKRNMWIYEKIISLDSRDGEMNYNLGGKEVKESFTNKVKVITVNEENITKFIFNKYRTIGLEHHHHHH", "soluble on expression in E. coli": "soluble"}
{"sequence": "MNERERVLAIKGGDHQAFIDLYNEYWSQVYDFSRLYIATIADAEEIVQDVFVKLWESRHLLKEDENIKGFLFIVTRNIVFNKNKKRVNENLFKTSVLVAYGNEGYYNSTTVEEDYCASQLKIFIDRLINSLPEQQRKCFLLSREESLSYKEIAERLGISQKTVEIHMGKALKFLKDKVKRGWEILLSLLSF", "soluble on expression in E. coli": "not soluble"}
{"sequence": "MNEYFFPKLTAVEALAPYRLRTTWSTGEVLEVDVGDILRKIPDLAPILDPEAFARVHIAEWEGSVEWFDTEFGRDNVYAWAKEQAGEVSHEMFGDWMHRNNLSLTTAAEALGISRRMVSYYRTAHKIIPRTIWLACLGWEATRPETKTLPRTLPAAYAKGVSASLS", "soluble on expression in E. coli": "soluble"}
{"sequence": "MNFHHLAYWQDKALSLAIENRLFINGEYTAAAENETFETVDPVTQAPLAKIARGKSVDIDRAMSAARGVFERGDWSLSSPAKRKAVLNKLADLMEAHAEELALLETLDTGKPIRHSLRDDIPGAARAIRWYAEAIDKVYGEVATTSSHELAMIVREPVGVIAAIVPWNFPLLLTCWKLGPALAAGNSVILKPSEKSPLSAIRLAGLAKEAGLPDGVLNVVTGFGHEAGQALSRHNDIDAIAFTGSTRTGKQLLKDAGDSNMKRVWLEAGGKSANIVFADCPDLQQAASATAAGIFYNQGQVCIAGTRLLLEESIADEFLALLKQQAQNWQPGHPLDPATTMGTLIDCAHADSVHSFIREGESKGQLLLDGRNAGLAAAIGPTIFVDVDPNASLSREEIFGPVLVVTRFTSEEQALQLANDSQYGLGAAVWTRDLSRAHRMSRRLKAGSVFVNNYNDGDMTVPFGGYKQSGNGRDKSLHALEKFTELKTIWISLEA", "soluble on expression in E. coli": "soluble"}
{"sequence": "MNFKESRAIYLQIADRICDDILLGQYEEEGRIPSVREYASIVEVNANTVMRSYEYLQSQEVIYNKRGIGFFVASGAKMLIHSLRKEQFLKEEVGSFFRQLYTLGISIKEIEKMYYEFIQRQNQ", "soluble on expression in E. coli": "soluble"}
{"sequence": "MNFMEIGTPLFEGAKKLLWLGGGELGKEMVIEAQRMGIETVVVDRYDMAPAMHVAHRKYVVNMLDGNAIKSIIKKENPDAIITEIEAINTDALLELESEGYKVIPNAKAVKICMNRIELRKLAAEKVKVPTTQYGFAENPEEVKKICKDIGYPCIIKPEMSSSGHGHEVVYNESEVEQKFKEAITHARGKSEQVIVEEYVKIDRELTVLTYRYLDDKGVVTKTITPIEHQRPSDVYYYVESWHPSTVDKDIIERAQEYATRVVNELGGFGIFGVEIIVSGNRVLFSEVSPRPHDTGLVTMASLDINEFQIHVRSALGLPTPEVKIVSPAAAHVILANNEGWAPKFLNVEKALQIPGVQIRLFGKPSTYYKRRMGVVLATGNTVEEAKEKARKAASLVLVT", "soluble on expression in E. coli": "soluble"}
{"sequence": "MNFNGSLFERLADKTQKKTDLNEEERITASIATHLAKLLGTRAGSVNTLPDYGLPELNNASLSAHDTVRQSRLAIEKAIRDYEPRLSEVHVMSDESSWCVLKRTFSIDASLDMNGVKKTVVFSIAVAGDGHVILN", "soluble on expression in E. coli": "not soluble"}
{"sequence": "MNGAAQADLWRLVVLNTYGGVYMDIDATLVWPLDKLLGDSQELYIRIKNNTEITNYFIATAPNNPDLQATIEQVVYNVNHYEPSMGVYHSTGPTVLNNILSAKAVIHTQDRKYVCIQGTFTNEHFQYIDKPRGKWLEHHHHHH", "soluble on expression in E. coli": "not soluble"}
{"sequence": "MNGDVQSVIRGYLERAQVAKTMSDAGRWNEAGDLLRQLMTDVKSCKISASNRDEHDARNTFLRALEANLKLVQQNVRDEDDLHEAMTRQSGSPEPPADPDVWSKPSPPLPSSSKFGATKKGVGAAGPRPREISKSTSSMSTNPADVKPANPTQGILPQNSAGDSFDASAYDAYIVQAVRGTMATNTENTMSLDDIIGMHDVKQVLHEAVTLPLLVPEFFQGLRSPWKAMVLAGPPGTGKTLIARAIASESSSTFFTVSSTDLSSKWRGDSEKIVRLLFELARFYAPSIIFIDEIDTLGGQRGNSGEHEASRRVKSEFLVQMDGSQNKFDSRRVFVLAATNIPWELDEALRRRFEKRIFIPLPDIDARKKLIEKSMEGTPKSDEINYDDLAARTEGFSGADVVSLCRTAAINVLRRYFRYDTKSLRGGELTAAMESLKAELVRNIDFEAALQAVSPSAGPDTMLKCKEWCDSFGAM", "soluble on expression in E. coli": "not soluble"}
{"sequence": "MNHKVHHHHHHIEGRHMAVVKEVLEIAEKIKNMEIRGAGKIARSAAYALQLQAEKSKATNVDEFWKEMKQAAKILFETRPTAVSLPNALRYVMHRGKIAYSSGADLEQLRFVIINAAKEFIHNSEKALERIGEFGAKRIEDGDVIMTHCHSKAAISVMKTAWEQGKDIKVIVTETRPKWQGKITAKELASYGIPVIYVVDSAARHYMKMTDKVVMGADSITVNGAVINKIGTALIALTAKEHRVWTMIAAETYKFHPETMLGQLVEIEMRDPTEVIPEDELKTWPKNIEVWNPAFDVTPPEYVDVIITERGIIPPYAAIDILREEFGWALKYTEPWED", "soluble on expression in E. coli": "soluble"}
{"sequence": "MNHLTNQYVMLHDEKRCIGCQACTVACKVLNDVPEGFSRVQVQIRAPEQASNALTHFQFVRVSCQHCENAPCVSVCPTGASYRDENGIVQVDKSRCIGCDYCVAACPFHVRYLNPQTGVADKCNFCADTRLAAGQSPACVSVCPTDALKFGRLDESEIQRWVGQKEVYRQQEARSGAVSLYRRKEVHQEGKA", "soluble on expression in E. coli": "not soluble"}
{"sequence": "MNIAKIVREAREQSRLTTLDFATGIFDEFIQLHGDRSFRDDGAVVGGIGWLGDQAVTVVGIQKGKSLQDNLKRNFGQPHPEGYRKALRLMKQAEKFGRPVVTFINTAGAYPGVGAEERGQGEAIARNLMEMSDLKVPIIAIIIGEGGSGGALALAVADRVWMLENSIYAILSPEGFASILWKDGTRAMEAAELMKITSHELLEMDVVDKVISEIGLSSKELIKSVKKELQTELARLSQKPLEELLEERYQRFRKY", "soluble on expression in E. coli": "not soluble"}
{"sequence": "MNIDELIAIDVHTHAEEPCCGPRDDGYDEFQAGMAKYFKNPAGHKGMLPTVQETAAYYRERKIGCVIFPVDAERETGFRRYENEEVAKIAAENSDIMIPFASIDPAKGKAGAREARRLVREFGVKGFKFHPTMQGFYPNDRMAYPLYEAIAEEGAITLFHTGQTGVGAGLRGGMAMRLKFSNPIHLDDVAVDFPDMPIILAHPSFPWQEEALSVATHKPNVYIDMSGWSPKYFPPILVQYANSLLKHKMLFGSDWPAMTPERWLNDFANISIKDEVRPLILKENARRLLKLLEHHHHHH", "soluble on expression in E. coli": "not soluble"}
{"sequence": "MNIDIKEAHRRMLYLLQSFDTVCKKHDIDYWLDYGTLLGAIRHQGFIPWDTDTDVGMLRSDYALFLEKGVPELPQDIFFQTPETEPAMAPWSWLVEARLRDRHSRYVPDKKTPAEPMQFGGLQLDLFIYDWDGKYENALSNSFERNLSESRIHLRLDEVEYLDTARFEGVEFPVPSGYDAYLTRCYGDYRTFPPEEERQIPEVVAWSVLEHHHHHH", "soluble on expression in E. coli": "soluble"}
{"sequence": "MNIDLNADLGEGCASDSELLTLVSSANIACGFHAGDAQTMLTCVREALKNGVAIGAHPSFPDRDNFGRTAMVLPPETVYAQTLYQIGALGAIVQAQGGVMRHVKPHGMLYNQAAKDPHLAQAIAKAVHDYDPSLILVGLAGSELIRAGERHRLVTRQEVFADRGYQADGSLVPRMQPGALIHDEEQALAQTLDMVQAGRVKSVTGVWTTVTAQTVCIHGDGEYALAFARRLRAAFNARNIHVIALEHHHHHH", "soluble on expression in E. coli": "soluble"}
{"sequence": "MNIKLYYVHDPMCSWCWGYKPTIEKLKQQLPGVIQFEYVVGGLAPDTNLPMPPEMQQKLEGIWKQIETQLGTKFNYDFWKLCTPVRSTYQSCRAVIAAGFQDSYEQMLEAIQHAYYLRAMPPHEEATHLQLAKEIGLNVQQFKNDMDGTLLEGVFQDQLSLAKSLGVNSYPSLVLQINDAYFPIEVDYLSTEPTLKLIRERIIENMSAQ", "soluble on expression in E. coli": "soluble"}
